Measured values: US20220119492A1 (MEDIKINE, published 2022)
Bridge positions count the residues as written; N and C are the ends. Ends that are not written are not given here.

T1: human IL-2Rβ (CD122 protein, Fc Tag) (27-239) (human, UniProt P14784 27-239)
T1 construct: range 27-239; Bought protein; also called hu-IL-2Rβ subunit; IL-2Rβ subunit; not shown: Fc tag of the bought protein
T1 sequence (looked up): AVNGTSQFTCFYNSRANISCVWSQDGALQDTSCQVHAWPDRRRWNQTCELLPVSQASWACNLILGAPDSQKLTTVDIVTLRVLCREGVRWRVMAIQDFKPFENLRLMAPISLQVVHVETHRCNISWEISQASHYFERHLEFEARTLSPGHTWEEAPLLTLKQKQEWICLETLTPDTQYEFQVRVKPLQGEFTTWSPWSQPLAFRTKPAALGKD


target: T1, human IL-2Rβ (CD122 protein, Fc Tag) …; test: phage ELISA competition
How it was run: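 Values are IC50s derived from absorbance in a competitive binding ELISA, where a phage tracer competes with test ligands for human IL-2Rβ-Fc across a ligand dilution series. After 50 μL of phage tracer was added without washing for 45 min at 4° C, bound phage was detected with TMB for 1 to 15 min at 25° C. The reaction was then stopped and absorbance read at 450 nm.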

| Binder | IC50 [µM] |
| --- | --- |
| AVEFYPCWLARIGELCDLVEP [SEQ ID NO 2670] | < 100 |
| FGAFYPCWKAQLGELCDLEPVT [SEQ ID NO 2675] | < 100 |
| QTGSYPCWIAHLGELCDLEGSA (disulfide 7-16 (inferred)) [SEQ ID NO 2649] | < 100 |
| WYPCWIARVGELCDLEEGPVNR [SEQ ID NO 2669] | < 100 |
| YLNFNPCWTAQLGELCDLASGE [SEQ ID NO 2645] | < 100 |
| WYPCWIAQLGELCDLDAKGQRR [SEQ ID NO 2667] | < 100 |
| STGWYPCWIAEFGELCDLVKPH [SEQ ID NO 2646] | < 100 |
| WYPCWIAHLGELCDLE [SEQ ID NO 2671] | < 100 |
| WYPCWLAHLGELCDLA [SEQ ID NO 2725] | < 100 |
| WHPCWIAHLGELCDLE [SEQ ID NO 2718] | < 100 |
| WYPCWMAHLGELCDLE [SEQ ID NO 2804] | < 100 |
| WYPCWLAHLGELCDLE [SEQ ID NO 2699] | < 100 |
| DLWQPCWMARLGELCDLKG [SEQ ID NO 2651] | < 100 |
| TGWWYPCWMAQLGELCDLQQT [SEQ ID NO 2650] | < 100 |
| WYPCGVAQPGDLCDLE [SEQ ID NO 2653] | < 100 |
| RWPWYPCEIARIGELCDLEQAN [SEQ ID NO 2674] | < 100 |
| AHWSQPCWTAQLGELCDLDMGD (disulfide 7-16 (inferred)) [SEQ ID NO 2647] | < 100 |
| RREWYPCWIAQVGELCDLPLI (disulfide 7-16 (inferred)) [SEQ ID NO 2673] | < 100 |
| HGRWFPCWMAQVGDLCDLEHSN [SEQ ID NO 2676] | < 100 |
| MLGEWLCEMDQLGYLCYLDHGD [SEQ ID NO 2654] | < 100 |
| HPVRYPCWVAQLGELCDLENGN [SEQ ID NO 2648] | < 100 |
| WDGWECGMDHDGWVCEFWGE [SEQ ID NO 2655] | < 100 |
| SRFWQPCWMAQLGELCHLDPQM [SEQ ID NO 2644] | < 100 |
| MGTGWQNYCRYAQLGELCLL [SEQ ID NO 2652] | < 100 |
| TNNFYPCWLAKLGDLCDFDDLN [SEQ ID NO 2668] | < 100 |
| WYPCWIARVGELCDME [SEQ ID NO 2672] | < 100 |
| WYPCWIARVGELCDLE [SEQ ID NO 2884] | < 100 |
